# Reference: article PMC3544810
# Biological target: PSD95 (HA-PSD95, VN-PSD95 plasmids) (UniProt P31016)
# Experiment: co-immunoprecipitation, GFP-SPIN90 and HA-PSD95
# Conditions: reference: GFP-SPIN90 WT; sites Y85,Y161,Y227
substance,measurement,value
"SPIN90 (from UniProt Q9NZQ3) GFP-SPIN90 YF (Y85,161,227F)",binding against the reference,weaker
